T1: ITB3763-778 (Homo sapiens (Human), UniProt P05106)
T1 chain: AKWDTANNPLYKEATS

T2: MAP1A1836-1851 (Homo sapiens (Human), UniProt P78559)
T2 chain: PSWLADIPPWVPKDRP


Key:
ITB3763-778 = target: T1, ITB3763-778; test: FP competition
MAP1A1836-1851 = target: T2, MAP1A1836-1851; test: FP competition

| Binder | Kd (ITB3763-778) [µM] | Kd (MAP1A1836-1851) [µM] |
| --- | --- | --- |
| TLN1 PTB (protein) GVSFFLVKEKMKGKNKLVPRLLGITKECVMRVDEKTKEVIQEWNLTNIKRWAASPKSFTLDFGDYQDGYYSVQTTEGEQIAQLIAGYIDIILK | 500 | – |
| SFN 14-3-3 (protein) MERASLIQKAKLAEQAERYEDMAAFMKGAVEKGEELSCEERNLLSVAYKNVVGGQRAAWRVLSSIEQKSNEEGSEEKGPEVREYREKVETELQGVCDTVLGLLDSHLIKEAGDAESRVFYLKMKGDYYRYLAEVATGDDKKRIIDSARSAYQEAMDISKKEMPPTNPIRLGLALNFSVFHYEIANSPEEAISLAKTTFDEAMADLHTLSEDSYKDSTLIMQLLRDNLTLWTADNAGEEGGEAPQEPQS | – | 355 |
